Measured values taken from US20150105322.

Experiments:
[1] = target: non-N-glycosylated human annexin A2-6×His (N62A) group #2 expressed in Pichia pastoris
[2] = target: glycosylated human annexin A2-6×His expressed in Pichia pastoris
[3] = target: non-N-glycosylated human annexin A2-6×His (N62A) group #1 expressed in Pichia pastoris
[4] = target: E. coli expressed human annexin A2, P07355
Sequence of E. coli expressed human annexin A2, P07355 (P07355 whole entry): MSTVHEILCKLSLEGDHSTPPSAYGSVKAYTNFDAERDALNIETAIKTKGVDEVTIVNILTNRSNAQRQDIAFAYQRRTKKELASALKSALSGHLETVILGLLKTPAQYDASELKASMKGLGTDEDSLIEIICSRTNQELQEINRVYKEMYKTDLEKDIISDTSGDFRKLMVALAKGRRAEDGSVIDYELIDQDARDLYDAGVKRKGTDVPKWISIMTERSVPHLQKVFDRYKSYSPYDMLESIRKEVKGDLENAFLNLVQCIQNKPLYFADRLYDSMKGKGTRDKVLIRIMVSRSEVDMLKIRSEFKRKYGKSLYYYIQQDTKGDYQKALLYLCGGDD

Sequence of non-N-glycosylated human annexin A2-6×His (N62A) group #2 expressed in Pichia pastoris (chain, as listed by the source N62A): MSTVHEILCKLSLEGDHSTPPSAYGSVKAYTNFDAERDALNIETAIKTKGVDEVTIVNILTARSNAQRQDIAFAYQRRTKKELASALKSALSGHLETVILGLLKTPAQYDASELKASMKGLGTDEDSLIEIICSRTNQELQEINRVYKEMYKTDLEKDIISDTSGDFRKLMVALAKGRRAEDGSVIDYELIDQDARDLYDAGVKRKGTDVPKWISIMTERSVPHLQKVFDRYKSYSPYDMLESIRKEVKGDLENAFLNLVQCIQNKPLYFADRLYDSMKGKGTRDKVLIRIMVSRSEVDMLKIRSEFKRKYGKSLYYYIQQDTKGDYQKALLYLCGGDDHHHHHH
Sequence of non-N-glycosylated human annexin A2-6×His (N62A) group #1 expressed in Pichia pastoris (chain, as listed by the source N62A): as above
Sequence of glycosylated human annexin A2-6×His expressed in Pichia pastoris (chain, as listed by the source): as the sequence (chain, as listed by the source N62A) above, with A62N counted along it

B1: tissue plasminogen activator (protein)
chain: SYQVICRDEKTQMIYQQHQSWLRPVLRSNRVEYCWCNSGRAQCHSVPVKSCSEPRCFNGGTCQQALYFSDFVCQCPEGFAGKCCEIDTRATCYEDQGISYRGTWSTAESGAECTNWNSSALAQKPYSGRRPDAIRLGLGNHNYCRNPDRDSKPWCYVFKAGKYSSEFCSTPACSEGNSDCYFGNGSAYRGTHSLTESGASCLPWNSMILIGKVYTAQNPSAQALGLGKHNYCRNPDGDAKPWCHVLKNRRLTWEYCDVPSCSTCGLRQYSQPQFRIKGGLFADIASHPWQAAIFAKHRRSPGERFLCGGILISSCWILSAAHCFQERFPPHHLTVILGRTYRVVPGEEEQKFEVEKYIVHKEFDDDTYDNDIALLQLKSDSSRCAQESSVVRTVCLPPADLQLPDWTECELSGYGKHEALSPFYSERLKEAHVRLYPSSRCTSQHLLNRTVTDNMLCAGDTRSGGPQANLHDACQGDSGGPLVCLNDGRMTLVGIISWGLGCGQKDVPGVYTKVTNYLDWIRDNMRP
- tPA-mediated plasmin-generation (fluorogenic plasmin substrate D-Val-Leu-Lys-AMC, with N-terminal lysine plasminogen) [1]: The enhancer function was partially (about 50%) restored in group #2
- tPA-mediated plasmin-generation (fluorogenic plasmin substrate D-Val-Leu-Lys-AMC, with N-terminal lysine plasminogen) [2]: did not significantly enhance tPA-mediated plasmin-generation
- tPA-mediated plasmin-generation (fluorogenic plasmin substrate D-Val-Leu-Lys-AMC, with N-terminal lysine plasminogen) [3]: restored the enhancer function completely
- tPA-mediated plasmin-generation (fluorogenic plasmin substrate D-Val-Leu-Lys-AMC, with N-terminal lysine plasminogen) [4]: comparable to the E. coli expressed human annexin A2 (positive control, labeled as t1+bac-rA2)
